B1: Azoarcus group I ribozyme (parent)
chain: GUGCCUUGCGCCGGGAAACCACGCAAGGGAUGGUGUCAAAUUCGGCGAAACCUAAGCGCCCGCCCGGGCGUAUGGCAACGCCGAGCCAAGCUUCGGCGCCUGCGCCGAUGAAGGUGUAGAGACUAGACGGCACCCACCUAAGGCAAACGCUAUGGUGAAGGCAUAGUCCAGGGAGUGGCGAAAGUCACACAAACCGG

Variants of: B1
Assay: reverse-splicing fitness (ratio to wild type); higher = more active; in vitro selection; Mg2+ level not given
How it was run: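 An in vitro group I ribozyme library with randomized positions was T7-transcribed and gel-purified. In triplicate, 10 pmol RNA in EPPS pH 7.5 was reacted with 50 pmoles of a 30-nt RNA substrate for 1 h at 37 °C across several added MgCl2 levels (1–48 mM), then stopped with EDTA. Products were reverse transcribed from a substrate-complementary primer, PCR-amplified and sequenced (HiSeq 4000). Fitness is a variant's read proportion after selection over that before, normalised to wild type.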

Variant	reverse-splicing fitness
C82A A111C A120U A145U C150G C169U U176A	0.0031
C82A A111C A120U A145U C150G C169U U176C	0.00305
C82A A111C A120U A145U C150G C169U U176G	0.0029
C82A A111C A120G A145G C150U C169G	0.0106
C82A A111C A120G A145G C150U C169A	0.0111
C82A A111C A120G A145G C150U C169U	0.00986
C82A A111C A120U A145G C150A C169U U176G	0.00328
C82A A111C A120U A145G C150A C169U U176A	0.00642
C82A A111C A120U A145G C150A C169U U176C	0.00488
C82A A111C A120U A145G C150G C169U	0.00759
C82A A111C A120U A145G C150G C169G	0.00663
C82A A111C A120U A145G C150G C169A	0.00782
C82A A111C A120G A145U C150U C169A U176C	0.00986
C82A A111C A120G A145U C150U C169A U176G	0.00604
C82A A111C A120G A145U C150U C169A U176A	0.0123
C82A A111C A120G C169A	0.0095
C82A A111C A120G C169U	0.00841
C82A A111C A120G C169G	0.00872
C82A A111C A120U A145G C150U C169G U176C	0.00509
C82A A111C A120U A145G C150U C169G U176A	0.00597
C82A A111C A120U A145G C150U C169G U176G	0.00299

Variant	reverse-splicing fitness
C82A A111C A120U A145U C150G C169G U176A	0.00314
C82A A111C A120U A145U C150G C169G U176C	0.00299
C82A A111C A120U A145U C150G C169G U176G	0.00306
C82A A111C A120U A145U C150G U176C	0.00511
C82A A111C A120U A145U C150G U176A	0.00392
C82A A111C A120U A145U C150G U176G	0.00259
C82A A111C A120U A145U C150A C169A U176A	0.00258
C82A A111C A120U A145U C150A C169A U176C	0.00334
C82A A111C A120U A145U C150A C169A U176G	0.00272
C82A A111C A120U A145C C150A C169A U176C	0.00256
C82A A111C A120U A145C C150A C169A U176A	0.00291
C82A A111C A120U A145C C150A C169A U176G	0.00275
C82A A111C A120G A145U C150G C169G	0.00749
C82A A111C A120G A145U C150G C169A	0.00851
C82A A111C A120G A145U C150G C169U	0.00788
C82A A111C A120U A145C C150G C169U	0.005
C82A A111C A120U A145C C150G C169G	0.00355
C82A A111C A120U A145C C150G C169A	0.00359
C82A A111C A120G C150U C169G U176C	0.0169
C82A A111C A120G C150U C169G U176G	0.00594
C82A A111C A120G C150U C169G U176A	0.0134

Variant	reverse-splicing fitness
C82A A111C A120G A145U C150A C169G U176G	0.00576
C82A A111C A120G A145U C150A C169G U176C	0.0156
C82A A111C A120G A145U C150A C169G U176A	0.0138
C82A A111C A120G C150A U176C	0.0233
C82A A111C A120G C150A U176G	0.00789
C82A A111C A120G C150A U176A	0.0133
C82A A111C A120U A145U C150U C169A	0.00321
C82A A111C A120U A145U C150U C169G	0.00466
C82A A111C A120U A145C C150A C169G U176A	0.0036
C82A A111C A120U A145C C150A C169G U176G	0.00211
C82A A111C A120U A145C C150A C169G U176C	0.00345
C82A A111C A120G A145U U176C	0.0197
C82A A111C A120G A145U U176G	0.00466
C82A A111C A120G A145U U176A	0.0134
C82A A111C A120G C150U C169U U176A	0.0157
C82A A111C A120G C150U C169U U176C	0.0155
C82A A111C A120G C150U C169U U176G	0.00631
C82A A111C A120U A145U C150G C169A	0.00497
C82A A111C A120U A145U C150G C169U	0.00325
C82A A111C A120U A145U C150G C169G	0.00401
C82A A111C A120G A145U C150G C169U U176C	0.0111

Variant	reverse-splicing fitness
C82A A111C A120G A145U C150G C169U U176A	0.00693
C82A A111C A120G A145U C150G C169U U176G	0.00542
C82A A111C A120G C150G U176C	0.0155
C82A A111C A120G C150G U176A	0.00868
C82A A111C A120G C150G U176G	0.00292
C82A A111C A120U A145C C150G U176C	0.00415
C82A A111C A120U A145C C150G U176A	0.00333
C82A A111C A120U A145C C150G U176G	0.00265
C82A A111C A120U A145C C169A U176C	0.00295
C82A A111C A120U A145C C169A U176A	0.00272
C82A A111C A120U A145C C169A U176G	0.00214
C82A A111C A120U A145C C150A C169U U176A	0.0036
C82A A111C A120U A145C C150A C169U U176C	0.00283
C82A A111C A120U A145C C150A C169U U176G	0.00263
C82A A111C A120U A145G	0.023
C82A A111C A120U A145U	0.0205
C82A A111C A120U A145C	0.0196
C82A A111C A120G C169U U176C	0.0145
C82A A111C A120G C169U U176A	0.0144
C82A A111C A120G C169U U176G	0.00559
